Results taken from patent US10155985B2, “Evaluation of eosinophilic esophagitis” (CHILDREN'S HOSPITAL MEDICAL CENTER, priority 2004, dated 2018).

B1: SEQ_ID_#116 (nucleic acid, listed as Homo sapiens)
DNA: TGTAAGTATTTACTTTTAATTCTACTTTCAGGTGGAAAATGATGAGAACTCCTTAGGGGGTCTTTAATCTCAAGATTGTCAGTCTAGCTAAATATAATTAAAAGACTGCCTTCTGTGTTTACTGCTGAATAATGATGAGAAAAAATAGTGTAATTTTTTTAATGTTTGCTAACCAGGTTCTCCATAGACAACTTTAGTCAGTGGTCATAATATTGTAGATTTAGCTGCAAATTTAAGAGGTGAGAAAAGGAATATGTTTGTTCCTAGGTTTGTTCTAATCAGACCAATTCAAAGTTAATATTGCAAGGCTATACAACATCTATCTCATCCAAATTGTTGTTTTATAGCTTTCAAACATCCTTTTTAACTTCTCTGCTCTGCCACTCATCATTCCATTAGGGCAAAAAGAAACAAAACTTAAGCTTTGAAGCTCATTAGATACATACTTTAAAAAATAGATCAAAATAAGCAAAAAGTACAATTTGTATTATCTGCATGAGTTTCTAGTTATCAGTGACCTAAGCTAAGTCTGGCTTTTAGTAGCAAGATTTTAGCATACCAGGCTCTCAAGGGAGGTATTTCTCAGTATTATTTCAATTTTTAAAGGATAAAGACATGTTCTAATTTAAATTTATTGAAATTTGATAATCCATGTGACTTTTCAGTACTGTGCTTGGTGCTTTAGATGGAAATAGGATAAATATCTGACTCAATCATCCAGGAGTCATGATACATACTTTACAATCTGATTTA
B2: SEQ_ID_#142 (nucleic acid, listed as Homo sapiens)
DNA: TAGAGGTTAAATGACCCCATTTGTGGGGTGGTTTATTGTTAAAATGATTAAACATGCTAAAATCACATGGAGTGGCTATTCCACTTTTGCCCTGACTCCATAGTGGGGCAAATGGGAACTACAGGAGTCACTTGGTTTGTGTGGCCTCTGGGGATGGTTAGACTTGGAGGGTTAGCGGTGAGCAGGTTAGCAAAGCCCCAAGCATCCTTCATGTAGTACACTTTTCCCAGCAGTAAAAAAATTCAGAGATTTCCCCCTTCTTCACTTTTCTTTCCTCCCTATATGTGCCCTACTTCTCATTCTCCTATGGCCCTGGAACCTCTTATGCTTCTGCCCGTTATGGTCTTAGACTAGATGATGAGGGAGGCTTTTCCTTGACACCAGCATTCCAGTCT
B3: SEQ_ID_#165 (nucleic acid, listed as Homo sapiens)
DNA: CCAAAAAGTCAGTTGATATGACACAGTCACAGACAGAACAGTCAGCAGCCCAAGAAAGGTCCTCACGGCTGCTGTGCTGGGTAGCACTTGCCATCCAGTTTCTAGAGTGATGAAATGCTCTGTCTGTACCGTTCAATACAGTAGGCACTGGCACTAGCCACATGTGCCAGCTAAGCACTTGAAATGTGGCCAGTGCAATAAGGAATTGAACTTTTAATTGCATTTAATAAACTGTATGTAAATAG
B4: SEQ_ID_#19 (nucleic acid, listed as Homo sapiens)
DNA: ATGGCCTGGACCCCTCTGCTCCTCATGTTCCTCTCTCATTGCTCAGGTGAGAACTGGTTTTAGGTGTCTAGGGTTAGCTCCTTAGCTTGCGTCAGCCTCTCTGGCTCAGATCCCCAAGACATGTATCTCTAGTTCCTGCCCCAGCCCCCATGAGTGTCTGTGCTTGCAGGTTCCCTCTCCCAGCCTGTGCTGACTCAGATGACCTCACTCTCTGCATCTCCGGGAGCATGAGCCAGACTTACCTGCACCCTGAGCAGTGGCTTCAGAGTTGGTAACTTTGCAATATAGTGGTCAGCTGAAGCCAGGCAGCCGTCCCAGGTGTCTCCTGAGATACTACTCAGACTCAAATATCACTCAGCACCCTGGGGTTCCCATCCACTTCTCTGGATCCAATGATACATTAGCCAATGCAGGGATTCTGTACATTCCTGGGCTGAAGCCTGAGGGTGAGGCTATTACTGTTGTACGTGTCACAGCAGCTCCAAGT
B5: SEQ_ID_#185 (nucleic acid, listed as Homo sapiens)
DNA: AATAATTAATGCAATTTAATGACAATAAATAAACTTCAAAGTCCCGCCAAAACCAGCAGAACCTCATCAAAGCAAAAGAAACAAGCTTCTTTCCAGCTCAGAGGTGAAGCGCTGCAGATGGCCAGTGTTTCATCTCGAGGGGAGGGTTGGGAAAGGCTGTGGAATGAGGG
B6: SEQ_ID_#186 (nucleic acid, listed as Homo sapiens)
DNA: CACCGGCTACAAGGCTAGACCGGGGGCTCGCATATCTCCACTTGCAGCTGCCACTGCCATTAGAAGAACTTGCTCAGCCAGCTCCTGGGCCCCAGGAAAAGGACAAGTGTCACCCAGAACAGAGCCACCTCCAGCTGCACTCAGCTCCAGAAGCTGGCCCAGCCGGTCCAGTACACCTTTTAAATAATGTCCTCTACGTGCCGGTGTGGAAGTAGCCCGGATGCAATTGAATGAACAACAGACGGTGCTTTCCAGGACGGCGCTGTGCTTTCCAGGATGGTGCTGTGCTTTCATTCATTTGGGTAGCTCCTCTGTGAGCCTCCCAGCGCCGACTGCAGAGCCCCCACTCTCCAGCCTGCAAGACCCCGAAATTCAAGCCACACAAAGAAAGGAGGAGGGGGCCGTGGCATTTACTGAACCTTATAAAACTGTCAGCAAAACAGCCCTTAGGCTTGGACTCCCTGCTAGCCGGGTTTTACGGTGCTGAAGTCAGCATCTTGATTCAGCTGCATAAATAATCTCCTGCAGTCCTGCAAGGCCTGGGGTAGGAGAGGGTATGGGGACCAGGGCACTCTGTAAGGGCTGGATAGGAACCCCAGGGAATAAGACAGACCAATGCGGGACTTCAGACTCCACTGCAGCGGGATCGGG
B7: SEQ_ID_#243 (nucleic acid, listed as Homo sapiens)
DNA: GGAAAGAGAGGAGAGGGGAGGGGAAGAGAGGGGAGGGAAGGGCAGGGCAGGGCAGAGCCCGGCAGGCAGCCCTCAGAGGAGGGGCGCAGGCCCCAGCCCAAGGCCTCCCGCGCCTGCCCAGGTCCCGGCCTCCATCGTCCAGGGCTCTGGGGCTCCCAGGGGAGACACCCACGCTCGGCCAAGCCCAGGGTTCCAGAAGCCCAGGGGTGGCGGCAGCCGGGCTCAGCCTATGGCCAGGCTCGCATTCAGACATGCGCCAGCCTCGGTCGGCTCTCTCCGGGAGACACTAAGATCTCCTCACTGACTTTGGTGTTCCTTGGTCTCACCAGCGCGTCCTAGCTGTGCCGAGCTCACACCCACCCTGTTTGGTGTAAGCCACAGGTCCACAACGTTCATCAGCTCTGGAAATCCCTCAACAATTGTGTCCAGTTTCACCACGAATTCCTTCTCCATATCCTCACCATTTTCTTTTACCCCCTCATCAAATTACTCCCTTCCGTCTAATCTGCTGATTAACTCATTCATTTTATCTTAAATTATTATG
B8: SEQ_ID_#245 (nucleic acid, listed as Homo sapiens)
DNA: TTTTTTTTTTGTATTTTTTGCAGGGACAGGGTTTCACCATATTGCTCAGGGTAGTCTCGAACTCCTGAGCTCAAGGGATCCACCCTGCCTTGGCCTCCCAGTGTGCTGGGATTTCACACGTGAGCCACCGAGCCCAGCTACATTCTTATTTCCTAAACTTTACAAGTTCACACTCTTCCCTTTAAACAAATGTGCCCCCTCTGGCGGTGTCATTTGAGTCCCGGTGTATGTCATTAAGCCTCTTAACCTCAACCACTACTTCCCACTGAAATAACTCTATTTTCTTTTTTTCTAATGAAAAAGTAAGACATGTTCTATGTAAAAATTAAAATATGGTGAGCACTTACCACTTACTATGAGCCAGGCATTGAACTAAGTATTTTTTAATCTTATTTTCATCCTCGTGATATGAGGTCAGTGCTTTGATGAGTTCCATTTTACGTAAGAAAGTAGTTAAG
B9: SEQ_ID_#43 (nucleic acid, listed as Homo sapiens)
DNA: TTCACTTTTTCATTATTTTATTGTTGTTTTAGTAGCATTTTGAGGTGAATGTATGCATAATCAGTGAATTAGACAAGCATGCACATACATGATATCTGATCAAACATTTTTTTGTCTCTCATCATCCTCATAAAATTTATTCAGTGGGAGAAGCTTTTTCTTCCATCAGATACATTCCAGTTGTATGCCAACATACTCAGGTAAGAGCAACATTTTGGTCATTTTAAATAGTTTGGTAATTATGACTCCCAGTCGCCTACAATAAGAAGAAACTACAATAATTTAGTACTAAATTTTTCTTCCCTCTCCAACTGAGTCTTGTGTTGAGTTGCCTACTTGCGCTAGCACATCTTCCCTTGCTGGTTGACATTTTTGCTAAGATTTCTCCCTCTCCTTCCACCCCACCTTGGACACGGAGGTTTCTGGCCTCCCTTTCCCCAAGGTCCCCAAAAAAAGAAATCTGTCTTATGAGATAGGGCTGCCTTCACATGGTGTCAGGGTTCTCTGGATAGTAATTGTGTGTAATAAGAGAGGGAGCATTCAAGAACTCCCATAGAAATTCTCATAGCCCTGACTTCTCATCTTTAGCTTGTGTAGATTTTTTTGTATTCCAGGTGGTCATTTGTGACTCCTTCCTCATCCCACAATCTGGCTTCACCTCCCACTTCTTGATGCTGGGTTCCCTCCACCTCTTTGGACAACCTATCAGAGAGGACCTAAAGAGCCCATGCTGACTTCACTCTTGCATGTCTCACTATGGTTCATGGGAAACCACACATCCATTGCCCTGACAACACTAGACATACAGGC
B10: SEQ_ID_#52 (nucleic acid, listed as Homo sapiens)
DNA: TTTTTTTCCAAGGGGAGAATGAAGCCATTTTATTTAGGGGAATGTTAAAACAAAGCCATATACAATCTGTAACAAATACAATACAATTGTTTGTTCCCTAGTCCTGAATAATTACAGTATATACAAAATCTGTAAGGCACTGGTTCCCCCAAAAGAACAAATGAGTCTTCTTGTGAAACAGACAACGAAACCCCTATATTGCCAACTTTTCTCCAAAAAATATGGCATTGTTTTTTTGTTTTGTTTTACAAGAGGAATCACAATTGCTAAATTAAGTCACTTCTGATGCCATTTCTTTCATTTCCACTGCTATGTGTCTGGGTTTTCTAAGGCAATGTAACTACTGAACATGTTCAAGTTTAAAAAACTATACTTCTCTCAGTGCCGTTCCACCCACAAACAAAGAAGAATCAGATCA

Each molecule was assayed on EE transcriptome (assay: Genome-wide microarray transcript profiling of esophageal biopsies, EE patients vs normal individuals (EE transcriptome)). Details: transcript level in esophageal biopsies of EE patients (n=76) compared to normal individuals (n=13); Affymetrix Human Genome U133 plus 2; p<0.01.
Summary of the method: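 Distal esophageal biopsies from EE patients (n=76; >24 eosinophils/hpf, basal hyperplasia) and normal controls (n=13; 0 eosinophils/hpf) profiled on Affymetrix Human Genome U133 plus 2 chips. Expression by absolute call and average difference, global scaling; transcriptome genes defined as p<0.01 (Welch t-test) and ≥1.5-fold change.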

First: B1
Second: B2
The “Fold Change” value of the first is higher: 3.363 for the first, 2.896 for the second.

First: B3
Second: B4
The “Fold Change” value of the first is lower: 2.732 for the first, 10.29 for the second.

First: B5
Second: B6
The “Fold Change” value of the first is higher: 2.62 for the first, 2.617 for the second.

Compared with B7, B8 is lower in “Fold Change” value: 2.308 for the first, 2.303 for the second.

Going from B9 to B10, the “Fold Change” value falls from 5.944 to 5.183.
